Assay: soluble on expression in E. coli; label from the status in PepcDB or PDB records

Soluble on expression in E. coli, not soluble:
MGSDKIHHHHHHMKTIKGPGIFLAQFIGTQAPFNTLAGIAQWAAGLGYKALQIPCNHPAIFDVERAAASQTYCDEVSGILAEHGLVISELSTHLEGQLVAVHPAYDAAFDAFAPAALHGDPQARQRWAVEKVRQAAVASGRLGLQAHATFSGALAWPFFYPWPPHNQPLLDEAFAELARRWRPLLDLFDEQGVDVCYEIHPGEDLHDGVTFERFLALVDNHPRCNMLYDPSHLHLQQMDYLAYIDIYHARIKAFHVKDAEFRRNGRNGVYGGYQPWQQRAGRFRSPGDGQIDFKGVFSKLTEYDFAGWAVLEWECCLKDSETGAREGSEFIRRHIIPVAGRAFDDFAAGGRE
MGSDKIHHHHHHMKVFITGGTGFVGSAVVQELVANGFEVVGLARSETSAQKLISWGAQPVRGSLTSLSTLATAAAQADAIIHLGFNNDFRHFFQAGAMDRRAIETMGRAISGTNKPLVVTYGTTGIRKHVETEHEVADTGLLKWLTPRKSEIVARQLMAQNINAFVVRLSPAVHGAGDMGFTRTVIERAKKSHRAEYFGLGTHAWSAVHRLDAAHLFYLVTMYGLEHPTTNERVFNAVAEESITIAAIARTISRKLNVPLKAKYNPLSFGDTAMLYLINCPTSSQLTRQILGWVPVQPDLLTDISSSRY
MGSDKIHHHHHHMKVKLLSALNDNNVDMAQTNSQRQLAMTIFAIAGEFDQNLPLNLCLILDRSGSMHGQPIKTVIQAVEGLIDRLKVGDRISVVAFSGSVEVIIPNQVIEDPESIKSQIKSKLSASGGTAIAEGLELGITELMKGTRGAVSQAFLLTDGHGESSLRIWKWDIGRDDNKRCLKLAQKAAKLNLTINTFGFGNSWNQDLLEKIADVGGGTLAHIEHPEQAVEQFSRLFGRIQSIGLTNAYLLLSLVPNVRLAELKPIAQVAPDTIELPVERETDGSFAVRLGDLMQDVERVVLANIYLGQLPEGKQAIGHLQIRYDDPMVNQEDLLSPLMPIYADVVRAYQPASNPQVQQSILALAKYRQTQLAEAKLLQGDRTGAATMLQTAAKTALQIGDKGAATVLQTSATRLQAGEELSEADLKKTRIVSKTVLQE
MGSDKIHHHHHHMKVLLYLEAEEYLKKSGIGRAIKHQEKALQIAGIDYTTNPTDDFDLVHMNTYGIRSWLLMSKAKKTGKKVIMHGHSTEEDFRNSFIGSNLVSPLFKWYLCRFYQKADAIITPTDYSKQLIKAYGIKKPIFVLSNGIDLSRYQRSEKKESAFRHYFHLSKDDKVVMGAGLYFMRKGIDQFVEVAAKMPDIRFIWFGETNKWVIPRKVRQIVTKQHPSNVTFAGYIKGDVYEGAMSASDAFFFPSREETEGIVVLEALASHQHVVLRDIPVYHGWVTEDSVELATDVDGFVEKLDKVLSGKSDKIKEGYHVAESRSIERIAHELASVYQKVMEL
MGSDKIHHHHHHMKVLVPATTTNLGAGFDVFGLALDLFNEVEFSFDTKETTIESTGKYASDLKDHNLFFEVLRFFERKTGYRVPPVRIKQTCNIPVSSGLGSSAAVIVAALHIANEGTGRNLSREDLMKLAVELEGHPDNVVPAFTGGLVVCYQNGSHLDFEKFEIDLSLTFLVPNFPVCTNEMRKILPEKVPFEDAVFNIKNSCQFLAKIAAGKIKEALKYVGDRLHQNYRINGNKKMKEFVEAILSKNPEYWFVSGSGPSVCSNINDFEGIPYLKDVLKLRVNNRGMIVSE
MGSDKIHHHHHHMKVLVVDNSRWWGGAEKNLQTLVDNRSNAIEFNVLSDYPMSHNITYRDFCGVRYRFDNSYFIRYLDNKYQIKGMRIFRLIYKSLYLIPSLVRYNPDIVHFNLYRSSDILDIIVCKILRKKVVLHIRSLANRIKIAPLTIKLADAVICVSKSVKQGFSFTGNKYHVIYNGIDSKYYHLVPQDQAREKLGINLTSFVIGSIGNLEREKGHDVAVKALKKIIDDGNVVVALIIVGKDSTINESETKRILTLSKDLGVQGHIKIFSISHKDIHYVYSACDIVLTLCIDGEAFGMIPLEAAMHNRPVIATNVGACRETIIHNQTGLLCEPNSPVALVQAIDTIMKDKKYCDQLTESARNRVLHKYSADAYRDSVYKIYITITKENKRKL
MGSDKIHHHHHHMKVQFLGAAQTVTGSCYMIEANGVRFAIDCGMHQGNTEIEKRNDDTEIYRPSDIAFFLVTHAHIDHTGLLPAMTRNGFTGPIYCTEPTADLLGIMLQDSAHIQEMEAEWQSRKLSRNGRIKKVEPLYTTEDATRAAEMLRPVDYGNSFEPSPGIRVTYKDAGHILGSAFLELEVTENGRPTRLVFSGDLGRPDALIVNDPQKAAPADYLFLESTYGDRDHKDPRFSRDELAEAIAYSYGNGEKVIIPAFAVERTQEVLYTLYLLHKEGRLPADMPVFVDSPLAIRATEIFRKHPKYYDDNMKKLVDSGEDPLALPNLKYTLNTQDSQALNVRSGPAVIISASGMCNAGRIKHHLRHNLWRPGASIVFVGYQGVGTPGRKIVDGNATVRLFNEDIAVKAKVFTIGSFSAHAGQSQILEWVSAFAHPQMEVFLVHGEEKAQTTLAGLLRERFNLPVSIPGYLEEVTLKPGRESLHQTDEARAHPDVDWEFLLAETEGKVAQLRKRLAGVEKRPWVEQTDIRERLVEINGELLHFLSQL
MGSDKIHHHHHHMKVQRIQAIENLIHEKGSASLDDLCKQFNVSKNTIRRDIAKLLQKNTIKKVYGGVVSIYNNPEEIRPFENRDTENHAEKQLIGKAAADFIEENDLIFIDSGTTTSCLAAALPTDKEITIITNSLDVINFASEMDNVKLIVIGSTFKTSTKSFVGVENWGFFEKYNITKAFMAATALSTTHGVMNSDILEYEIKRHMMEKAREKFLLVDHTKVDKSALLTYGELAEFDWLVTSKEMAGGCLGYCADVGVLVRLV
MGSDKIHHHHHHMKVVIISGGNSPSYTLIKKELRESEYLIAADSGANTLFKYDVFPDYIIGDLDSIKTVALNYYKNRKVSILQYPPEKDYTDTEIAVNKAIDLGATEIVLLGCTGSRIDHLFGNIGMLLKCLKLGVSCVIKDDNNTIFLTETSIKIRGSLGKTFSIIPYSEEISDLTIIGAKYPLNNYKMKIGSAIGISNVFEEEEVKVQFNSGKILIVYPTD
MGSDKIHHHHHHMKVVKFGGSSLASGAQLDKVFHIVTSDPARKAVVVSAPGKHYAEDTKVTDLLIACAEQYLATGSAPELAEAVVERYALIANELQLGQSIIEKIRDDLFTLLEGDKSNPEQYLDAVKASGEDNNAKLIAAYFRYKGVKAEYVNPKDAGLFVTNEPGNAQVLPESYQNLYRLRERDGLIIFPGFFGFSKDGDVITFSRSGSDITGSILANGLQADLYENFTDVDAVYSVNPSFVENPKEISELTYREMRELSYAGFSVFHDEALIPAFRAGIPVQIKNTNNPSAEGTRVVSKRDNTNGPVVGIASDTGFCSIYISKYLMNREIGFGRRALQILEEHGLTYEHVPSGIDDMTIILRQGQMDAATERSVIKRIEEDLHADEVIVEHHLALIMVVGEAMRHNVGTTARAAKALSEAQVNIEMINQGSSEVSMMFGVKEAEERKAVQALYQEFFAGVLIS
MGSDKIHHHHHHMKYDVAVYIGRFQPFHNGHLSVVQRSLEVAQHLLILTGSHLASPDTRNPWSSEEREEMIRAALPANWQKRVSFIPIRDHLYSDNLWLTEIQQKVLEEAGEEARIVLVGHRKDRSSYYLDLFPQWDFLEVPRLEAVHSTAIRDAYFSGSEESNYAAALPAGVADYLTAYQQTGRYQWLRDEADYIKGYRQAWAVAPYAPTFVTTDAIVIQSGHVLVVRRKARPGKGLIALPGGYIQQDETVLEGMLRELREETGLKVPKPVLQGSIVENRVFDAPQRSQRGRIITHAFCIHLKPGPLPSVRGGDDAEKAWWMSLADLYAHEDQFFEDHFQIIQHFVSRT
MGSDKIHHHHHHMKYRRIKGTNDIFGEEIWYWRYVEETFRNVCESAGIEEIRTPIFEQTELFVRSVGEESDIVQKEMYTFQDKAGRSITLRPEGTAPVVRAFLENSLIDRGFQQRYYYIGPMFRYEKPQSGRLRQFHQVGFEIIGPESPKADFEVIMLVDTFLRRLGLTKYKIHLNSIGCPVCRKNYREALKEYYGRILDNLCDDCKRRYETNILRLLDCKVDHEYSLNAPKSVDYLCDSCRAHYKKLKEYLNTFEIEYVEDHTLVRGLDYYTRTVFEVRHEGLGAQSAIAGGGRYDGLFAELGGSSVPALGFAGGIERIILALKAEGIEIPMKNVHLVYIATLGEKAFMDGVRLAGELRKKGLSVDVDIMDRKLSGQLKHASRMGSRYAVIIGDEELEKGIVILRDLETGDQVEIDRDFAADYIAERVSKD

— the DeepSol protein solubility set
